Values of other authors in PMC8671346.

Assays:
[1] = biological target: GM-CSF receptor alpha chain (GMRα) (Homo sapiens) (UniProt P15509)
[2] = biological target: GM-CSF receptor (GMRα/βc) (Homo sapiens) (UniProt P15509)

Kd [1]: 5 nM
Kd [2]: 0.1 nM
Substance: GM-CSF (from UniProt P04141)
